Reference: patent publication US20250313635A1, “ANTI-INTEGRIN ANTIBODIES AND USES THEREOF” (Merck Sharp & Dohme LLC, priority 2022, published 2025)
Numbering of substitutions follows the chain as printed. Read-outs that look alike come from different tables or passages of the source.

B1: Ab-31: integrin binder antibody, VH SEQ ID NO: 35, VL SEQ ID NO: 36 (antibody, V domains shown)
VH: EVQLQESGPGLVKPSETLSLTCAVSGYSISSGYYWGWIRQPPGKGLEWIGSIYHSGNTYYNPSLKSRVTISVDTSKNQFSLKLSSVTAADTAVYYCARVPRYSRGDAYYYYGMDVWGQGTTVTVSS
VL: DIQMTQSPSTLSASVGDRVTITCRASQSIGSWLAWYQQKPGKAPKLLIYKASSLESGVPSRFSGSGSGTEFTLTISSLQPDDFATYYCQQSGPYPWTFGGGTKVEIK
B2: Ab-32: integrin binder antibody, VH SEQ ID NO: 37, VL SEQ ID NO: 38 (antibody, V domains shown)
VH: B1 VH
VL: EIVLTQSPGTLSLSPGERATLSCRASQSVRSSYLAWYQQKPGQAPRLLIYGASSRATGIPDRFSGSGSGTDFTLTISRLEPEDFAVYYCQQAGLVFTFGGGTKVEIK
B3: Ab-30: integrin binder antibody, VH SEQ ID NO: 33, VL SEQ ID NO: 34 (antibody, V domains shown)
VH: B1 VH
VL: DIQMTQSPSTLSASVGDRVTITCRASQSISSWLAWYQQKPGKAPKLLIYKASSLESGVPSRFSGSGSGTEFTLTISSLQPDDFATYYCQQVKIYPPYTFGGGTKVEIK
B4: Ab-33: integrin binder antibody, VH SEQ ID NO: 39, VL SEQ ID NO: 40 (antibody, V domains shown)
VH: EVQLVQSGAEVKKPGSSVKVSCKASGGTFSNYAISWVRQAPGQGLEWMGGIIPIFGTANYAQKFQGRVTITADESTSTAYMELSSLRSEDTAVYYCARAPRSARGDMYYYYYGMDVWGQGTTVTVSS
VL: B1 VL with S91Y, P93R
B5: mAb-24: control antibody abituzumab; 17E6, a therapeutic pan-αv integrin antibody (antibody, chains of the INN, looked up, V domains shown)
VH: QVQLQQSGGELAKPGASVKVSCKASGYTFSSFWMHWVRQAPGQGLEWIGYINPRSGYTEYNEIFRDKATMTTDTSTSTAYMELSSLRSEDTAVYYCASFLGRGAMDYWGQGTTVTVSS
VL: DIQMTQSPSSLSASVGDRVTITCRASQDISNYLAWYQQKPGKAPKLLIYYTSKIHSGVPSRFSGSGSGTDYTFTISSLQPEDIATYYCQQGNTFPYTFGQGTKVEIK
B6: Ab-29: integrin binder antibody, VH SEQ ID NO: 31, VL SEQ ID NO: 32 (antibody, V domains shown)
VH: ELQLQESGPGLVKPSETLSLTCTVSGGSISSNSYYWGWIRQPPGKGLEWIGSIYYSGSTYYNPSLKSRVTISVDTSKNQFSLKLSSVTAADTAVYYCARVRRVAGRGDSYYYYYGMDVWGQGTTVTVSS
VL: DIQMTQSPSSVSASVGDRVTITCRASQGISRWLAWYQQKPGKAPKLLIYAASSLQSGVPSRFSGSGSGTDFTLTISSLQPEDFATYYCQQAISHPWTFGGGTKVEIK

Assays:
mα5β1 = target: T1, mα5β1 (Mus musculus, UniProt P09055+P11688); experiment: Mouse AlphaLISA integrin-ligand blocking assay (fibronectin); format: biochemical; conditions: Table 12; read-out: IC50 Mouse integrin AlphaLISA assays mα5β1
T1 construct: The full extracellular domains for all α and β integrin subunits; (GGGS)3 linker (C); acidic coiled-coil with cysteine (C); GG-Avitag (C); hexa-histidine tag (C); basic coiled-coil with cysteine (C); made in house; host or cells: Expi293 cells
Method: (§1) Integrin AlphaLISA assay. In the AlphaLISA integrin assays, we used a HEPES based buffer (25 mM HEPES pH 7.4, 137 mM NaCl, 1 mM MgCl2, 1 mM MnCl2, 2 mM CaCl2, 2.7 mM KCl, and 0.05% Tween 20). Optimal assay conditions were determined with a titration of the reagents for signal noise ratio (S/N), linear range, etc. For the respective integrins, we used the final concentrations described in Table 9.
(§2) Briefly, the testing antibody (8 μL) was added as a 4×(of Final testing concentration) solution in the HEPES buffer described previously into a 384w AlphaPlate™ (Perkin Elmer #6005350). Then the integrin and ligand were added sequentially as 8×(4 μL each). Plates were sealed and incubated at room temperature for two hours. Then 4×acceptor bead solution ([…]) was added, and the plates were resealed and incubated at room temperature (RT) for one hour. Finally, 4×([…]) donor beads solution was added in a darkened room and incubated for 45 minutes at room temperature. Plates were read on the Envision (Perkin Elmer) in AlphaScreen™ mode within three hours of donor bead addition.

mαvβ8 = target: T2, mαvβ8 (Mus musculus, UniProt P43406+Q0VBD0); experiment: Mouse AlphaLISA integrin-ligand blocking assay (LAP); format: biochemical; conditions: Table 12; read-out: IC50 Mouse integrin AlphaLISA assays mαvβ8
T2 construct: The full extracellular domains for all α and β integrin subunits; (GGGS)3 linker (C); acidic coiled-coil with cysteine (C); GG-Avitag (C); hexa-histidine tag (C); basic coiled-coil with cysteine (C); made in house; host or cells: Expi293 cells
Method: as §1, §2

[1] = system: IPF patient lung fibroblasts; experiment: αSMA imaging, TGFβ-induced αSMA expression; format: cell-based, human; conditions: TGFβ 5 ng/mL, 48 hours
Method: (§3) αSMA imaging. Primary cells (passage 3-5) were grown on Cell carrier Ultra, collagen Type 1 coated 96-well plates (Perkin Elmer, #6055700) at a density of 25,000 cells/well. Once the cells adhere, they were starved in serum free media for 24 hours followed by addition of treatments, i.e., 5 ng/mL TGFβ (Biolegend #580702)±inhibitors. Cells were pre-treated with inhibitors for 30 minutes prior to the addition of TGFβ stimulation. 48 hours post treatment, the cells were fixed in 4% methanol free paraformaldehyde (ThermoFisher Scientific #28908) for 20 minutes at room temperature and incubated with anti-alpha smooth muscle Actin antibody (Abcam #ab7817) at 1:4000 overnight at 4° C. Following primary antibody incubation, cells were incubated with Goat anti-mouse secondary antibody (ThermoFisher Scientific #A32723) at 1:500 and Hoechst (ThermoFisher Scientific #62249) at 1:1000 for one hour at RT. The fixed and stained cells were images for immunofluorescence on Perkin Elmer's Opera Phenix high content Imager.

[2] = system: Normal human lung fibroblasts; experiment: αSMA imaging, TGFβ-induced αSMA expression; format: cell-based
Method: as §3

mαvβ5 = target: T3, mαvβ5 (Mus musculus, UniProt O70309+P43406); experiment: Mouse AlphaLISA integrin-ligand blocking assay (vitronectin); format: biochemical; conditions: Table 12; read-out: IC50 Mouse integrin AlphaLISA assays mαvβ5
T3 construct: The full extracellular domains for all α and β integrin subunits; (GGGS)3 linker (C); acidic coiled-coil with cysteine (C); GG-Avitag (C); hexa-histidine tag (C); basic coiled-coil with cysteine (C); made in house; host or cells: Expi293 cells
Method: as §1, §2

mαvβ1 = target: T4, mαvβ1 (Mus musculus, UniProt P09055+P43406); experiment: Mouse AlphaLISA integrin-ligand blocking assay (fibronectin); format: biochemical; conditions: Table 12; read-out: IC50 Mouse integrin AlphaLISA assays mαvβ1
T4 construct: The full extracellular domains for all α and β integrin subunits; (GGGS)3 linker (C); acidic coiled-coil with cysteine (C); GG-Avitag (C); hexa-histidine tag (C); basic coiled-coil with cysteine (C); made in house; host or cells: Expi293 cells
Method: as §1, §2

human αvβ1 = target: T5, human αvβ1 (Homo sapiens, UniProt P05556+P06756); experiment: Latent TGFβ activation assay, TMLC / CHOK1-integrin co-culture (PAI-1 luciferase); format: cell-based; conditions: FIG. 5B
T5 construct: expressed in transfected cells
Method: (§4) Latent TGFβ activation assay. Transfected mink lung epithelial cell (TMLC) cell line containing the TGFβ responsive PAI-1 promoter driving luciferase expression (Mazzieri et al, Methods Mol. Biol. 142, 13-27 (2000)) and the CHO-K1 human and mouse αvβ×integrin cell lines were grown under optimized growth conditions to 90% confluency. TMLC cells were trypsinized and plated at 25,000 cells/well in 50 μL in Costar clear bottom white walled plates. In a separate plate, 25 μL of serially diluted antibodies at 4×concentration were added to wells containing 25 μL of either 25,000 cells of human or mouse αvβ×cells. After a brief mixing, the 50 μL mixture was transferred to the TMLC cell plates for a total volume of 100 μL and incubated at 37° C. for 16 hours. 100 μL of ONE-Glo kit (#PRE6120) was added to each well and read after three to five minutes on the Envision plate reader.

human αvβ8 = target: T6, human αvβ8 (Homo sapiens, UniProt P06756+P26012); experiment: as above; format: cell-based; conditions: FIG. 5B
T6 construct: expressed in transfected cells
Method: as §4

mouse αvβ8 = target: T7, mouse αvβ8 (Mus musculus, UniProt P43406+Q0VBD0); experiment: as above; format: cell-based; conditions: FIG. 5B
T7 construct: expressed in transfected cells
Method: as §4

human αvβ6 = target: T8, human αvβ6 (Homo sapiens, UniProt P06756+P18564); experiment: as above; format: cell-based; conditions: FIG. 5B
T8 construct: expressed in transfected cells
Method: as §4

mouse αvβ1 = target: T9, mouse αvβ1 (Mus musculus, UniProt P09055+P43406); experiment: as above; format: cell-based; conditions: FIG. 5B
T9 construct: expressed in transfected cells
Method: as §4

mouse αvβ6 = target: T10, mouse αvβ6 (Mus musculus, UniProt P43406+Q9Z0T9); experiment: as above; format: cell-based; conditions: FIG. 5B
T10 construct: expressed in transfected cells
Method: as §4

mαvβ6 = target: T11, mαvβ6 (Mus musculus, UniProt P43406+Q9Z0T9); experiment: Mouse AlphaLISA integrin-ligand blocking assay (LAP); format: biochemical; conditions: Table 12; read-out: IC50 Mouse integrin AlphaLISA assays mαvβ6
T11 construct: The full extracellular domains for all α and β integrin subunits; (GGGS)3 linker (C); acidic coiled-coil with cysteine (C); GG-Avitag (C); hexa-histidine tag (C); basic coiled-coil with cysteine (C); made in house; host or cells: Expi293 cells
Method: as §1, §2

hαvβ6 = target: T12, hαvβ6 (Homo sapiens, UniProt P06756+P18564); experiment: Integrin cell-based ELISA (CELISA) binding, CHOK1-human αvβ6 cells; conditions: FIG. 3C
T12 construct: expressed in transfected cells
Method: (§5) Integrin cell-based ELISA (CELISA) assay. Cell binding EC50 data for antibodies were obtained for CHOK1 parental cells and CHOK1 cells expressing human or mouse αvβ1, αvβ6, and αvβ1 integrins by cell-based ELISA. Three days prior to the assay cells were seeded at 10,000 cells per well in 100 μL/well of media in Falcon 96-well Flat-Bottom Tissue Culture Plates (REF 353916), resulting in an even cell monolayer in each well on the day of the assay. On the day of the assay, media was removed from the cells and a fivefold titration of primary antibodies was added at concentrations ranging from 0 to 200 nM in TBSF+MnCl2 buffer (25 mM Tris, 0.15 M NaCl, 0.1% BSA, 0.5 mM MnCl2, pH 7.5). Cells incubated with primary antibody solution for 1 hour at room temperature. Primary antibody was removed and plates were washed twice with 150 μL/well of 1×DPBS+Tween 20 (TEKnova Cat #β0297, diluted to 1× in distilled water GIBCO #15230-147), before adding 50 μL/well of a 1:5000 dilution of HRP-conjugated goat anti-mouse IgG (Southern Biotech, #1030-05) in TBSF+MnCl2. After 30 minutes of incubation at room temperature, secondary antibody was removed, and cells were washed twice with 150 μL/well of 1×DPBS+Tween 20. […] Absorbance was read on a TECAN plate reader at 450 nm, with a 620 nm reference wavelength.

hαvβ1 = target: T13, hαvβ1 (Homo sapiens, UniProt P05556+P06756); experiment: Integrin cell-based ELISA (CELISA) binding, CHOK1-human αvβ1 cells; conditions: FIG. 3C
T13 construct: expressed in transfected cells
Method: as §5

hα5β1 = hα5β1 (Homo sapiens, UniProt P05556+P08648); experiment: Human AlphaLISA integrin-ligand blocking assay (fibronectin); format: biochemical; parameters: The full extracellular domains for all α and β integrin subunits; (GGGS)3 linker (C); acidic coiled-coil with cysteine (C); GG-Avitag (C); hexa-histidine tag (C); basic coiled-coil with cysteine (C); made in house; host or cells: Expi293 cells; conditions: Table 11; read-out: IC50 Human integrin AlphaLISA assays hα5β1
Method: as §1, §2

mαvβ3 = target: T14, mαvβ3 (Mus musculus, UniProt O54890+P43406); experiment: Mouse AlphaLISA integrin-ligand blocking assay (vitronectin); format: biochemical; conditions: Table 12; read-out: IC50 Mouse integrin AlphaLISA assays mαvβ3
T14 construct: The full extracellular domains for all α and β integrin subunits; (GGGS)3 linker (C); acidic coiled-coil with cysteine (C); GG-Avitag (C); hexa-histidine tag (C); basic coiled-coil with cysteine (C); made in house; host or cells: Expi293 cells
Method: as §1, §2

T3 sequence (P43406 31-988 limits assumed): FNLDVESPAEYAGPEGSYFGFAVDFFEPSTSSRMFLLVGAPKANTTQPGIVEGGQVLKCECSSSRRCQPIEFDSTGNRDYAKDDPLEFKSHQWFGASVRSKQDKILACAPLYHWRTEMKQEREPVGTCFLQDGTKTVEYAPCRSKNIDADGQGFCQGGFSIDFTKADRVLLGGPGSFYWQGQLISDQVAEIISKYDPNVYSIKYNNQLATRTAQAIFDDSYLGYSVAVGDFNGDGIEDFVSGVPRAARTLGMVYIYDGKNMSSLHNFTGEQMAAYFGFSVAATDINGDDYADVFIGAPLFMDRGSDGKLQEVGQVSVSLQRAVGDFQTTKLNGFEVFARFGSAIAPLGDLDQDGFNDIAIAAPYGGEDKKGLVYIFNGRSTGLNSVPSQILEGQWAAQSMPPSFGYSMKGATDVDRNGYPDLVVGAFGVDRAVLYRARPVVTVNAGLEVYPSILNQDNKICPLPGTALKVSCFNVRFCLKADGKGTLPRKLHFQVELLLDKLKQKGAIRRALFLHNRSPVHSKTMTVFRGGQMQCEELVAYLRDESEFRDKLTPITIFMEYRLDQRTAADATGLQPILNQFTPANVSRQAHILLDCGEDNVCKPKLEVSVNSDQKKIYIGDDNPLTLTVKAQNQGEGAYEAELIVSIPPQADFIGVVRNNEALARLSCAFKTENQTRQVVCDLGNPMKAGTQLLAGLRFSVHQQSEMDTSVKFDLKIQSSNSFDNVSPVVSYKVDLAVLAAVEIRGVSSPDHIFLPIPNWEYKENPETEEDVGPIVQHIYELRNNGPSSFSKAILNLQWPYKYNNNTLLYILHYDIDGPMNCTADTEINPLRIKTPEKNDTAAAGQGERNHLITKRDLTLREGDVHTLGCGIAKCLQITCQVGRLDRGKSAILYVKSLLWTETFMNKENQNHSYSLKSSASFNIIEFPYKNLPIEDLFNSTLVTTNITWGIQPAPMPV
T3 sequence (O70309 24-719 limits assumed): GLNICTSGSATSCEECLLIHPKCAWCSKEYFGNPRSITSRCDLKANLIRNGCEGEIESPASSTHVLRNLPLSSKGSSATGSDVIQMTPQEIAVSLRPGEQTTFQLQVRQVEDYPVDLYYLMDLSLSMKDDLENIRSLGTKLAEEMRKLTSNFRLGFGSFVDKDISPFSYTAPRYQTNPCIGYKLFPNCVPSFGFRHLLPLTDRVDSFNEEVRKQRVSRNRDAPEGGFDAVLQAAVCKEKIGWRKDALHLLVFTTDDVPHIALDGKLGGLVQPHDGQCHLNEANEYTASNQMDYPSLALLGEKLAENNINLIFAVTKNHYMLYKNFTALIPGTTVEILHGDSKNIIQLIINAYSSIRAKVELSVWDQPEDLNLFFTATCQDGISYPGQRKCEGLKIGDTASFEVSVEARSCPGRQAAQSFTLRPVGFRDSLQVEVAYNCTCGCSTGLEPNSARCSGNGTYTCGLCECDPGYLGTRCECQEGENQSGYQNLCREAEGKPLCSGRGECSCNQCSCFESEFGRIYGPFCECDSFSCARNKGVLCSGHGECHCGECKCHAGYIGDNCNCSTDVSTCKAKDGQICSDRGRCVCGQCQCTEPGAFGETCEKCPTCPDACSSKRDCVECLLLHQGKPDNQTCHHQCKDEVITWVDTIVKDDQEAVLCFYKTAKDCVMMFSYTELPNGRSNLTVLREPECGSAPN
T2 sequence (P43406 31-988 limits assumed): as the sequence (P43406 31-988 limits assumed) above
T2 sequence (Q0VBD0 22-681 limits assumed): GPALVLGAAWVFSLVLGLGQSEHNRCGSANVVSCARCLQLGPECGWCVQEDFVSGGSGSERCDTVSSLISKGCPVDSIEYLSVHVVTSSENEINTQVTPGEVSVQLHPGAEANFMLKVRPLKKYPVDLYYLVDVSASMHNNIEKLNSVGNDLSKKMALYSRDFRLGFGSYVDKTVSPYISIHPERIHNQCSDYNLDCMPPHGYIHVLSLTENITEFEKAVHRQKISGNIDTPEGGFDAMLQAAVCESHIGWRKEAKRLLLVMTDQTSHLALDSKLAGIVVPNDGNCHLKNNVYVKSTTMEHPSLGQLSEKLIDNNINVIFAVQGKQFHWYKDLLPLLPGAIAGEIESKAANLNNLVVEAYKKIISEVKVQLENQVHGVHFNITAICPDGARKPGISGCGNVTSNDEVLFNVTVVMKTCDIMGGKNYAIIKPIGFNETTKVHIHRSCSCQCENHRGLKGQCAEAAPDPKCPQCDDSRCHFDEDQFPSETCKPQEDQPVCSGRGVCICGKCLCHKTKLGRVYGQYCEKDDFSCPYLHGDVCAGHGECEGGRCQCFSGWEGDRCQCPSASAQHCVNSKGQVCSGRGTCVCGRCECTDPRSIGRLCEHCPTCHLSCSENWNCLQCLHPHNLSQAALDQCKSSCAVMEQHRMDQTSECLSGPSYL
T1 sequence (P11688 45-999 limits assumed): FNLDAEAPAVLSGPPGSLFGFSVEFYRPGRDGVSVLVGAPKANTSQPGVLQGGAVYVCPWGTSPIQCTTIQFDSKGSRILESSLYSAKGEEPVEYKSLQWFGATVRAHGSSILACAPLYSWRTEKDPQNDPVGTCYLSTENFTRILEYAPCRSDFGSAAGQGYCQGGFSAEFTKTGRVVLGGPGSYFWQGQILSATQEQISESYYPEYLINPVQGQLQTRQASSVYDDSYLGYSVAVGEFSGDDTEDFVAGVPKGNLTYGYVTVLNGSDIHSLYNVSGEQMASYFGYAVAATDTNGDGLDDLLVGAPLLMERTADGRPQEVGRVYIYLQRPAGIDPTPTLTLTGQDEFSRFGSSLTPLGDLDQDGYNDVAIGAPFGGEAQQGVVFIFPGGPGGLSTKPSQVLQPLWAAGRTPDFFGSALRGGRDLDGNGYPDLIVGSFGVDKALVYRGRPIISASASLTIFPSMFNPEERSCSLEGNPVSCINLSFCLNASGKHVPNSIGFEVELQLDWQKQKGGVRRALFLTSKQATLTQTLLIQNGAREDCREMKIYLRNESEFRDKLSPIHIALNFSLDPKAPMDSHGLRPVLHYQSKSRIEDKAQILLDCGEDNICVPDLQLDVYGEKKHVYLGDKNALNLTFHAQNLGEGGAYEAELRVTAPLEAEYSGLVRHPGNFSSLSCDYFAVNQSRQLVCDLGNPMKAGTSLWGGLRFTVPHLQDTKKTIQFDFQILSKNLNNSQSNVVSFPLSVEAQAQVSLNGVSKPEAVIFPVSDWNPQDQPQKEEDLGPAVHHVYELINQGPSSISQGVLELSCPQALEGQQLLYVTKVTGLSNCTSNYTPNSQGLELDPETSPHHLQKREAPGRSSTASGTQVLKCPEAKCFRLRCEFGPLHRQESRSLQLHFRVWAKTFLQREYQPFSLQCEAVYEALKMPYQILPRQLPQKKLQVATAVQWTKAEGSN
T1 sequence (P09055 21-728 limits assumed): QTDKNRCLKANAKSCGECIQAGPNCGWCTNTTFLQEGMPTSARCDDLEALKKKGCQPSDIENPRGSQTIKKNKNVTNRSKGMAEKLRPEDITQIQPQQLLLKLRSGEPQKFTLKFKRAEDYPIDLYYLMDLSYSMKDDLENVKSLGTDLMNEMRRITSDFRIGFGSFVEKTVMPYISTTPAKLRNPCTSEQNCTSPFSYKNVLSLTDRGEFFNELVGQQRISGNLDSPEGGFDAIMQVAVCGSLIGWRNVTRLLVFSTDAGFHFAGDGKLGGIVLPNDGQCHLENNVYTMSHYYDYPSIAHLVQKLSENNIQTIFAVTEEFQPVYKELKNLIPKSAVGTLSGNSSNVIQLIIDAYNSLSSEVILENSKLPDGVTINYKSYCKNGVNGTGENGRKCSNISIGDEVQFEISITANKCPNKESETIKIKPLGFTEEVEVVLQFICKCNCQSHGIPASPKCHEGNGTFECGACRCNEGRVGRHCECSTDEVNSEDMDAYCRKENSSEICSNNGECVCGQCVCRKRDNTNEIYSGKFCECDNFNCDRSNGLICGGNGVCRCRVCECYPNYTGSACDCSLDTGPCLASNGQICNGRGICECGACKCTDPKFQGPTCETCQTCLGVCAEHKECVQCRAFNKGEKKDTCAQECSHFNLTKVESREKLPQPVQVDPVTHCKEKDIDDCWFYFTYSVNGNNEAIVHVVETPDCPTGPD
T4 sequence (P43406 31-988 limits assumed): as the sequence (P43406 31-988 limits assumed) above
T4 sequence (P09055 21-728 limits assumed): as the sequence (P09055 21-728 limits assumed) above
T11 sequence (P43406 31-988 limits assumed): as the sequence (P43406 31-988 limits assumed) above
T11 sequence (Q9Z0T9 22-708 limits assumed): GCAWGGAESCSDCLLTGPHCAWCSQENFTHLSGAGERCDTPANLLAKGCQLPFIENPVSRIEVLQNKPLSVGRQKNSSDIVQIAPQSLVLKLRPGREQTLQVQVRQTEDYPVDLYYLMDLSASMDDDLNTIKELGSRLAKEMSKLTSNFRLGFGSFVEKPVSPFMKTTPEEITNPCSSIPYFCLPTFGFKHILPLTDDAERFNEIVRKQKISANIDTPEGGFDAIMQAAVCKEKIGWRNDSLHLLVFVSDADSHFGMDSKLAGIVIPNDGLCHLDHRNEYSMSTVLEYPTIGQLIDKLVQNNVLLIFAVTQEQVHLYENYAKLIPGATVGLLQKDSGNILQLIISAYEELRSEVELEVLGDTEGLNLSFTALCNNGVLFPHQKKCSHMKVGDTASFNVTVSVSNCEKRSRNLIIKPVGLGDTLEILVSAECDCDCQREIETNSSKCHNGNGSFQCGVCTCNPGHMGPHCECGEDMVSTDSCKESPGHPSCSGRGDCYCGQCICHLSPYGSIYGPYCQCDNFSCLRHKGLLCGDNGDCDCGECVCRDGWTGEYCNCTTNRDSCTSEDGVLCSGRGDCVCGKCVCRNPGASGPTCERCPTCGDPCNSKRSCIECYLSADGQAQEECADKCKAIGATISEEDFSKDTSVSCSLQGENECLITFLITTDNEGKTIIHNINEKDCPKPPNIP

Molecule | IC50 (mα5β1) | IC50 (mαvβ8) | IC50 (mαvβ5) | further results
B1 | > 250 nM | 66.3 nM | > 250 nM | IC50 ([1]; read-out: IC50 of TGFβ-mediated αSMA induction): 33 ± 21 nM; activity on TGFβ-induced αSMA in normal human lung fibroblasts [2]: ineffective
B2 | > 250 nM | 71.9 nM | > 250 nM | 
B3 | > 250 nM | 25.1 nM | > 250 nM | 
B4 | > 250 nM | 24.7 nM |  | 
B5 | > 250 nM | > 250 nM | > 250 nM | IC50 (mαvβ1): > 250 nM; inhibition of latent TGFβ activation, human αvβ1 co-culture (human αvβ1): potent; inhibition of latent TGFβ activation, human αvβ8 co-culture (human αvβ8): potent; inhibition of latent TGFβ activation, mouse αvβ8 co-culture (mouse αvβ8): minimal activity; inhibition of latent TGFβ activation, human αvβ6 co-culture (human αvβ6): potent; inhibition of latent TGFβ activation, mouse αvβ1 co-culture (mouse αvβ1): minimal activity; inhibition of latent TGFβ activation, mouse αvβ6 co-culture (mouse αvβ6): minimal activity; IC50 (mαvβ6): > 250 nM; IC50 ([1]; read-out: IC50 of αSMA expression): > 1000 nM; binding to human αvβ6 integrin in CELISA (hαvβ6): preferentially bound; binding to human αvβ1 integrin in CELISA (hαvβ1): preferentially bound; IC50 (hα5β1): > 250 nM; IC50 (mαvβ3): > 250 nM
B6 | > 250 nM | 102 nM |  | 
